One experiment deals with HLA-B*35:01. Briefly: IEDB peptide-MHC binding, purified MHC/competitive/fluorescence; filed as Kd, often an IC50 or EC50 that approximates it; ≥ and ≤ were set here for values at or beyond the usual limits of such assays. Conditions: source organism: Variola virus.
The target of experiment [1] is HLA-B*15:17. The experiment is described as above. The note with it: source organism: Variola virus.
For the next experiment, the target named is HLA-A*26:02. The description is as above.
Another experiment deals with HLA-B*18:01. The description is as above. Conditions: source organism: Variola virus.
Experiment [2] deals with HLA-B*07:02. Described as above. The note with it: source organism: Variola virus.
The next experiment deals with HLA-B*58:01. Briefly: IEDB peptide-MHC binding, purified MHC/direct/fluorescence; filed as Kd, often an IC50 or EC50 that approximates it; ≥ and ≤ were set here for values at or beyond the usual limits of such assays.
The target of the next experiment is HLA-B*46:01. The description is as above.
The target of experiment [3] is HLA-A*69:01. The description is as above. The note with it: source organism: Buffalopox virus.
For the next experiment, the target named is HLA-B*40:01. The experiment is described as above.
The target in the next experiment is HLA-B*27:05. The description is as above.
A further experiment deals with HLA-A*26:03. Described as above. Conditions: source organism: Variola virus.
In another experiment the target is HLA-B*39:01. Described as above. The note with it: source organism: Buffalopox virus.
The target in another experiment is HLA-B*48:01. The experiment is described as above.
The target of experiment [4] is HLA-B*15:01. The experiment is described as above.
The next experiment addresses HLA-A*01:01. The description is as above.
Experiment [5] has as its target HLA-A*02:01. Described as above.
The target of experiment [6] is HLA-A*68:02. Described as above. Conditions: source organism: Buffalopox virus.
In another experiment the target is HLA-B*57:01. The experiment is described as above.
In the next experiment the target is HLA-A*32:07. The experiment in a line: IEDB peptide-MHC binding, purified MHC/competitive/fluorescence; filed as Kd, often an IC50 or EC50 that approximates it; ≥ and ≤ were set here for values at or beyond the usual limits of such assays.
For the next experiment, the target named is HLA-B*83:01. The description is as above.
Experiment [7] has as its target HLA-A*31:01. The description is as above. Conditions: source organism: dengue virus type 1.
In a further experiment the target is HLA-B*15:42. The description is as above.
The target of the next experiment is HLA-B*45:06. Described as above.
A further experiment has as its target HLA-A*32:01. Briefly: IEDB peptide-MHC binding, purified MHC/competitive/radioactivity; filed as Kd, often an IC50 or EC50 that approximates it; ≥ and ≤ were set here for values at or beyond the usual limits of such assays. Conditions: source organism: Dengue virus 1 Brazil/97-11/1997.
A further experiment deals with HLA-A*30:01. The description is as above. Conditions: source organism: Dengue virus 1 Brazil/97-11/1997.
The target in another experiment is HLA-A*11:01. The experiment in a line: IEDB peptide-MHC binding, purified MHC/direct/fluorescence; filed as Kd, often an IC50 or EC50 that approximates it; ≥ and ≤ were set here for values at or beyond the usual limits of such assays.
Experiment [8] concerns the target HLA-A*69:01. Briefly: IEDB peptide-MHC binding, purified MHC/competitive/fluorescence; filed as Kd, often an IC50 or EC50 that approximates it; ≥ and ≤ were set here for values at or beyond the usual limits of such assays. Conditions: source organism: Escherichia coli.
The target in experiment [9] is HLA-B*15:01. The experiment is described as above. Conditions: source organism: Escherichia coli.
Another experiment deals with HLA-A*02:06. The description is as above.
Experiment [10] addresses HLA-A*68:02. Described as above.
The target of experiment [11] is HLA-A*31:01. Briefly: IEDB peptide-MHC binding, purified MHC/direct/fluorescence; filed as Kd, often an IC50 or EC50 that approximates it; ≥ and ≤ were set here for values at or beyond the usual limits of such assays. The note with it: source organism: Escherichia coli O157:H7.
The target in experiment [12] is HLA-B*15:17. Described as above. The note with it: source organism: Escherichia coli O157:H7.
Another experiment concerns the target HLA-A*03:01. The experiment is described as above. The note with it: source organism: Escherichia coli O157:H7.
Experiment [13] addresses HLA-B*07:02. The description is as above.
A further experiment addresses HLA-C*04:01. Briefly: IEDB peptide-MHC binding, purified MHC/competitive/fluorescence; filed as Kd, often an IC50 or EC50 that approximates it; ≥ and ≤ were set here for values at or beyond the usual limits of such assays.
Another experiment deals with HLA-B*51:01. Briefly: IEDB peptide-MHC binding, purified MHC/direct/fluorescence; filed as Kd, often an IC50 or EC50 that approximates it; ≥ and ≤ were set here for values at or beyond the usual limits of such assays. Conditions: source organism: Mycobacterium tuberculosis.
Experiment [14] addresses HLA-A*02:01. The experiment in a line: IEDB peptide-MHC binding, purified MHC/competitive/fluorescence; filed as Kd, often an IC50 or EC50 that approximates it; ≥ and ≤ were set here for values at or beyond the usual limits of such assays. Conditions: source organism: Toxoplasma gondii GT1.
The mark [15] stands for this setting: source organism: Buffalopox virus.
Where [16] appears, read: source organism: dengue virus type 1.
Setting [17] is: source organism: Escherichia coli.
[18] abbreviates: source organism: Escherichia coli O157:H7.
The mark [19] stands for this setting: source organism: Francisella tularensis subsp. tularensis FSC198.
[20] abbreviates: source organism: Mycobacterium tuberculosis.

On to IHSDQLSKF, for which the Kd (commonly a measure of binding affinity in units of concentration) with HLA-B*35:01 is 2.38 µM; with HLA-B*15:17 [1] it was not below 20 µM; with HLA-A*26:02 (source organism: Variola virus), 2.68 µM; with HLA-B*18:01, 4.57 µM; in the experiment with HLA-B*07:02 [2], not below 20 µM; with HLA-B*58:01 (setting [15]), not below 20 µM. For the same sequence, the Kd with HLA-B*46:01 (setting [15]), in the experiment with HLA-A*69:01 [3], with HLA-B*40:01 (setting [15]), with HLA-B*27:05 (setting [15]), with HLA-A*26:03 and with HLA-B*39:01 was not below 20 µM each time. The Kd with HLA-B*48:01 (setting [15]), in the experiment with HLA-B*15:01 [4] (setting [15]), with HLA-A*01:01 (setting [15]), with HLA-A*02:01 [5] (setting [15]), in the experiment with HLA-A*68:02 [6] and with HLA-B*57:01 (setting [15]) was not below 20 µM throughout.
With ATYGWNLVK, the Kd with HLA-A*32:07 (setting [16]) is 0.0774 µM; in the experiment with HLA-B*83:01 (setting [16]), not below 5 µM; in the experiment with HLA-A*31:01 [7], 0.00148 µM; with HLA-B*15:42 (setting [16]), not below 5 µM; with HLA-B*45:06 (setting [16]) it was not below 5 µM; with HLA-A*32:01, 0.755 µM. Also, the Kd was 0.212 µM in the experiment with HLA-A*30:01 and not above 0.001 µM with HLA-A*11:01 (source organism: Dengue virus 1 Singapore/S275/1990).
As for EQRLIDICV, the Kd in the experiment with HLA-A*69:01 [8] is not below 20 µM; with HLA-A*26:02 (setting [17]), not below 20 µM; with HLA-B*15:01 [9], 0.863 µM; with HLA-A*02:06 (setting [17]), 0.846 µM; in the experiment with HLA-A*68:02 [10] (setting [17]), not below 20 µM; with HLA-B*58:01 (setting [18]), not below 20 µM. In addition, the Kd with HLA-B*46:01 (setting [18]), in the experiment with HLA-B*40:01 (setting [18]), with HLA-B*27:05 (setting [18]), with HLA-A*31:01 [11], in the experiment with HLA-B*15:17 [12] and with HLA-A*11:01 (setting [18]) was not below 20 µM throughout. Besides, the Kd with HLA-B*48:01 (setting [18]), with HLA-A*03:01, with HLA-A*01:01 (setting [18]), with HLA-A*02:01 [5] (setting [18]), in the experiment with HLA-B*57:01 (setting [18]) and with HLA-B*07:02 [13] (setting [18]) was not below 20 µM each time.
Consider MGAGLVFPI, for which the Kd is 0.0448 µM with HLA-A*32:07 (setting [19]); not below 5 µM with HLA-B*83:01 (setting [19]); not below 5 µM with HLA-C*04:01 (setting [19]); not below 5 µM in the experiment with HLA-B*15:42 (setting [19]); not below 5 µM with HLA-B*45:06 (setting [19]); not above 0.0001 µM with HLA-A*68:02 [10] (setting [19]).
Regarding ALRQARAAF, the Kd with HLA-A*32:07 (setting [20]) was 0.157 µM; with HLA-C*04:01 (setting [20]) it was not below 5 µM; with HLA-B*15:42 (setting [20]) it was not below 5 µM; with HLA-B*45:06 (setting [20]) it was not below 5 µM; with HLA-B*51:01, not below 20 µM; with HLA-B*15:01 [4] (source organism: Mycobacterium tuberculosis str. Haarlem), 0.012 µM. The same sequence came in with a Kd with HLA-B*07:02 [13] (setting [20]) of 0.0089 µM.
As to VLGSWPVDL, the Kd came out at 2.46 µM with HLA-A*02:06 (source organism: Toxoplasma gondii GT1) and 0.209 µM with HLA-A*02:01 [14].

These data come from the Immune Epitope Database (IEDB).
